This assay addresses Y289L_C342T mutant of the catalytic domain (residues 130-402) of bovine β(1,4)-galactosyltransferase I (bovine) (UniProt P08037). The assay can be described thus: cell-based or functional assay.
Chain of UniProt P08037 (P08037 other isoform, or with tags, fused parts or gaps Y289L C342T Y289L C342T): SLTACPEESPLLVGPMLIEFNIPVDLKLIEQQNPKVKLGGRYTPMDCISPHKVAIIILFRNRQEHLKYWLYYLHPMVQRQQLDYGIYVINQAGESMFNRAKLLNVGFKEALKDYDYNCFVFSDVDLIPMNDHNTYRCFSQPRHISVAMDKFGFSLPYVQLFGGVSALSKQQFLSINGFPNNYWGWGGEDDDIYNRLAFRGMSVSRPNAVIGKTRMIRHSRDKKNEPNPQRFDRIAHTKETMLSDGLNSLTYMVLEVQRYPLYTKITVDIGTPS

Turning to “bovine α-Lactalbumin (Sigma) (from UniProt P00711 20-142)”, the GalNAc-T activity of Y289L mutant with acceptor Glc (100 mM), 500 µM UDP-GalNAc, +LA 55 µM (the value without LA in the same row is 2.6) came out at 34.8 pmol/min/ng; the GalNAc-T activity of Y289L mutant with acceptor GlcNAc (100 mM), 500 µM UDP-GalNAc, +LA 55 µM (the value without LA in the same row is 31.3) is 3.3 pmol/min/ng; the GalNAc-T activity of Y289L mutant with acceptor Glucosamine (100 mM), 500 µM UDP-GalNAc, +LA 55 µM (the value without LA in the same row is 1.8) was 5 pmol/min/ng.

These data come from US20060084162A1.
